Results: the DeepSol protein solubility set

Assay: soluble on expression in E. coli; label from the status in PepcDB or PDB records

Sequence	soluble on expression in E. coli
MSLKSVVNDTDGIVRVAKSVIPEIKHQDEVRVKIASSGLCGSDLPRIFKNGAHYYPITLGHEFSGYIDAVGSGVDDLHPGDAVACVPLLPCFTCPECLKGFYSQCAKYDFIGSRRDGGFAEYIVVKRKNVFALPTDMPIEDGAFIEPITVGLHAFHLAQGCENKNVIIIGAGTIGLLAIQCAVALGAKSVTAIDISSEKLALAKSFGAMQTFNSSEMSAPQMQSVLRELRFNQLILETAGVPQTVELAVEIAGPHAQLALVGTLHQDLHLTSATFGKILRKELTVIGSWMNYSSPWPGQEWETASRLLTERKLSLEPLIAHRGSFESFTQAVRDIARNAMQGKVLLIPEGHHHHHH	soluble
MSLKTFIKIILLYLMPILAFATELRPGDRLQIKFPGESAFEKSFQLDHDGKISLPEIGTVKLQGMSLLQARTVLTGKLSNAYKDLSKFDLFLKERRLTVTVLGYVKEPGPVDMPIRANVQMAINSAGGLAQGAQLDKLQIRRSSGIIEFDYKHYLDSGDPSSLPKLEPMDVIFIPASPLIGNVQVEFDARTLTASGDAGEDGEAIKVFGEVHRPGTFAFKEDASVMDMIMRAGGVTRYAGIEQIRVIHQGQPYPFDMREYLDTGNPDLMPKIHQGDVIFIPQATEQVKSGSRTVYVMGEVFKPGAMEMGEGSGFYDLLATAGGPTRFAETRQIRIIRADGKVQPFDLQGYVDSQGRTKLPSIQPGDAILVPEKTDMNEKSWLKVHPNRAVRIIGAVNRPGRYEWASEMTLMDLIAHAGGPIASADTAHLQILQQRKNGNTESVSFDLKSFLDEGHHHHHH	not soluble
MSLKTLSDDLYKQFSNFLAVQSGIVLGDNKQYLVKSRLSPLMTQFGIESLSDLVTRAMSVRERDLKMAVVDAMTTNETLWFRDTYPFQLLTDKIFPELGKSGRPIKIWSAASSSGQEPYSIAMTALEQQVKKPGTLPGGVQIVGTDISSTMLNQCKEGVYDSLALARGLSPERKKLFFEPYGDNKMRVVERVRKLTTFRPLNLLESYSLLGKFDIIFCRNVLIYFAPEVKSKILNQFAASLNPGGYLMLGASESLAGLTDRFEMIRCNPGIVYKVKEGHHHHHH	soluble
MSLKTPIFAQQTDPALTSAVLGQTAALKKVHKDRKKTQEKIIAAEVAVTASLERIHHVEDKMLDYLSNAQGAMQNLYQIKRAGELVAKEIPQNCSLLLKSVGGNLKGTVIAAMVSDELTDAATQMTALFPFMKQLVTSGKYDVTGDDGKNEKHKVNLLNASERYYIANEVVSRLEAINTNLFILAWQVRTLSWNDLWFSLDPEGWANVMSGKNIIGGIISDWNQGYSLKEGHHHHHH	soluble
MSLKVLICDDDKIVRDDIANIAKESGYVDYVKKVKDGIEAIEFIKNEKIDLLIIDIDMPYKNGIDSAEEILSIDKDIHIVFVTGFADYSLESFKVHPIDFVVKPFKKEKILDSINIAIDHINSHKIANNNFIEDTLFVYKIRKQIHMINFDDIVMFEKNSRAINLHTKDEDIIKFYENFDDLKKRLPPNFFMTHRQYIVNLRFIHKVIPINKSSLEIRFINFQENAILNKSLEKDFLYRFYREGHHHHHH	not soluble
MSLKWNRPAGSLSATLILAHGAGAPMDSPFMERIAELLAAQGIAVARFEFPYMAQRREDGRKRPPNPQAQLLDCWRRVHAQVRETLDGPLALGGKSMGGRMASLLADELGADALVCLGYPFYAAGKPEKPRVAHLAGLRTPTLIVQGERDALGNREAVAGYALAPTIRLHWLAAADHDLKPLKASGLTHEQHLAATAREVAGFLRGLQGH	not soluble
MSLLMIIDCHGHYTVLPKAHDEWREQQKAAFKAGQPAPPYPEISDDEIRETIEANQLRLIKERGADMTIFSPRASAMAPHVGDQSVAVPWAQACNNLIARVVDLFPETFAGVCMLPQSPEADMTSSIAELERCVNELGFIGCNLNPDPGGGHFKHPPLTDRFWYPFYEKMVELDVPAMIHVSGSCNPAMHATGAYYLAADTIAFMQLLQGNLFADFPTLRFIIPHGGGAVPYHWGRFRGLADMLKQPSLDTLLMNNVFFDTCVYHQPGINLLADVIDNKNILFGSEMVGAVRGIDPTTGHYFDDTKRYIDALDISDQERHAIFEGNTRRVFPRLDAKLKAREGHHHHHH	soluble
MSLLWKKAQEETHDYIIRKADPSDAAGIISCMQSVMDERIYLVGEYYLLSERAEQERIKSLDDLTLVCVIDRKVVGVLTVQRGIYRKNRHTGMLGIAIMAGHRHKGLGTRMIKEAILWCEDQGIKKLNLEVFSTNVNAIKTYEKVGFEVEGKRRKQFLIDGQYVDDVLMTYYVDKSLKEEGHHHHHH	soluble
MSLMIRAITIFVTNYSKISDYTEKLSKLNDNNIWSKRISLPPTPIDLSLSKLIELLPTTHSEIIFSLINLQEKDKRLREIKDILKSDKRIYVHVLVKTTDNLKDLAKLIISLEPEEASRFALLFNQDFLLTPYFPTSSANTVYDSFGISLLYVDEFKQGKINEALSKADTIGRQLEKKLNIKYLGIDASLSPWMESSVGEIVESRSKKMFDISNLSAVAEINREIFEGVWRNRVNPIGFSELMLPIAEDNLLRERVKEGSLTLKDLLLMSYVCVAGIDMVGIYSDLVTYENILKSVYYIQYTKRKPYGVRMIPTNGSPVLTKMFGEIPEVKVVEGHHHHHH	soluble
MSLMRKNETREFLIEDIEFPAVGVAFYNDKKVYIKGAVPGQKVLARVSKVRREKIEAKLKEIVTNIPGAAQPKCPDFGVCGGCVHQFLPYEKQLEFKEREVLKLFKDAKIEGFEYLGILGSPEKEEYRNKMEYTFGDFVKGGELTLGMHAKDSGFSIVNTDKCNIVDEDFRIILKTVVEYFRKKDLPIYKVMQHVGYLRNLVVRKAKNTGEILIALVTTSQVDFDLTELTEILKSINYLGELKGILHVINDGLADMVRGDKIVTLFGQDYITERILDLKFKMSLFSFFQTNSKGAEKLYSEVLEFLGDVSNKTVFDLYCGTGTIGQLASKKAEKVIGIELIEEAVEAAKENTKLNNISNCSFIAGDVAKVITEIKEKPDTIILDPPRPGVSPNAMKYVIKFNAPEIVYVSCNPKTLVNDLGVLRAYGYEVEKVKIVDMFPGTGHVETVVLLQRKIIEGHHHHHH	soluble
MSLMYGYPEKWLEGMTTGEGIAAELRLGIVNGHIAEGTLLTENQMAKQFNVSRSPIRDAFKLLQQNQLIQLERMGAHVLPFGEQEKKEMYDLRLMLESFAFSRVKNQERLPIVKEMKKQLEMMKVAVKFEDAESFTKHDFEFHETLIKASNHQYLNSFWSHLKPVMMALVLTSMRQRMQQNPQDFERIHHNHQVFIDAVEQYDSQILKEAFHLNFDDVGKDIEGFWLNEGHHHHHH	soluble
MSLNALIEELKRLLKECATKKIVVIGECVRDVFVNTQRLSGPSDYQYTITKQLQRREFPGGAYPVARDLSNFVSKVHFVTCSTHEFPTNLERMDVIPISRERISKTRFFSGHNSNIFHYHCVFSEEITLSLTPLQELASVFSEADLVIVLDYGHGLLNSDVRKSISQNARFVALNCQANEDKYPFHQIWKYESTDLLLLNKVEAEINLLKTGVPVQELALRLHSKFKSTYTIVTDAEHGAVIQHDYRAYSSPAMSSCVVDAVGCSDIMLGFAALAAQNGKSAEEILYFASVAAGAKTMINVHERPLSREDLYEIALGVQNEGHHHHHH	not soluble
MSLNASVSPKGSLETLSQREVQQLSEVGTGSLYTLFRQCALAILNTGAHVDNAKTILEAYKDFEVRIHQQDRGVRLELLNAPADAFVDGEMIASTREMLFSALRDIVYTESELASQRIDLESSQGITDYVFHLLRNARTLRPGEGHHHHHH	not soluble
MSLNATARQEPADLNDPALRARAVTAARGDAPFDMLITGGRLLDTVTGLIRQADIGLVGALISSVHAPASRTDAVEIIDAAGSILTPGLIDTHMHIESSMVTPAEYASAVLPRGVTTIVWDPHEFGNVHGLDGVRWAIEAARSLPLRMILLAPSCVPSAPGLELAGADFDASMITEMLHSSAVGGVAEVMNMRGVIDGDPRMTDIVNAGLAAGKLVCGHARGLEGADLNAFMASGITSDHELTSGADLLAKLSAGLTIELRGSHDHLLQEFVEVLSGLGHLPPTVTLCTDDVFPDELQEGGGLDDVVRRLVRYGMKPEWAIRAATFNAAQRLKRSDLGLVATGRRADIVLFEDLTEFRARLVISGGRIVARNGSMQVAVQQIDTAPLVNSVKLPPLTENDFRIPAKGERVRVATIDRPRFTQWGEAETEVRDGFIVPPAGSAMISVAHRHGKTDGIPRIGFLTGWGEWRGAFCTTVSHDSHNLTVFGGNAGDMALAANAVISAGGGMAVAKDGRIEAMLPLPLSGLVTDASLKDTALAFAGIRKAMEKIVTWKPPYLVFKACFGATLACNVGPHQTDQGIADVVTGKVLENPVLAVWEGHHHHHH	soluble
